Article PMC11618752 (2024)

Target: XPO1 protein, recombinant (UniProt O14980 1-1071)
Experiment: ITC

Sequence of XPO1 protein, recombinant (O14980 whole entry): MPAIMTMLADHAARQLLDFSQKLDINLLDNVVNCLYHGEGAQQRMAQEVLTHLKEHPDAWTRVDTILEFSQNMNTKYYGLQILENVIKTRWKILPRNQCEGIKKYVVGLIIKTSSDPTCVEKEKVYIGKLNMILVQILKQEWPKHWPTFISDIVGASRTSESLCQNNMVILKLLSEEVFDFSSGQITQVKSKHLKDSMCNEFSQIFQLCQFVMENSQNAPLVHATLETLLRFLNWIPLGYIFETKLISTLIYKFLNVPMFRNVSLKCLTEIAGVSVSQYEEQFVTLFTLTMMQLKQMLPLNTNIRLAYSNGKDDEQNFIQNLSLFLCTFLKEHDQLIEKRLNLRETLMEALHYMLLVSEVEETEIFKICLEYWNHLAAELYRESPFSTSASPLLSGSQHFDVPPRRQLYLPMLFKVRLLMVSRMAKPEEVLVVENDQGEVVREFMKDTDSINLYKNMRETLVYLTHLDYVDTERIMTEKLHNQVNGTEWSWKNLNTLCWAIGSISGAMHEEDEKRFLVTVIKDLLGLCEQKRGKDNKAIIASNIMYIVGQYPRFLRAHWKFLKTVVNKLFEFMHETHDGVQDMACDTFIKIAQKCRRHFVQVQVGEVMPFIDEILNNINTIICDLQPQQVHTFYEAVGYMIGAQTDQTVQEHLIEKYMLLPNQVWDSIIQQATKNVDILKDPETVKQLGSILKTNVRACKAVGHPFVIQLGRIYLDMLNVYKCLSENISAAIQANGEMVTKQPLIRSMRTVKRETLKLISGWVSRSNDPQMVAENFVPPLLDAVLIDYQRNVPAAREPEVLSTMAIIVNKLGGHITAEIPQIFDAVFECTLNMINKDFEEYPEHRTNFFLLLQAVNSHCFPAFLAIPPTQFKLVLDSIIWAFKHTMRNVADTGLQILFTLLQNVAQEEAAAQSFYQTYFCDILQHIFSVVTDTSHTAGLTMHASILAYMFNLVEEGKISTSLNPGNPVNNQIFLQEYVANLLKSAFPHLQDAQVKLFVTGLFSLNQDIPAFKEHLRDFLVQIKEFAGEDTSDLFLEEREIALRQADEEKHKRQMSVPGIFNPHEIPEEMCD

LLFALKVLNM [NES peptide (173–182 aa of TIRR)]
Kd: 45 µM
